Test system: non-sulphated CCK-8 (Asp-Tyr-Met-Gly-Trp-Met-Asp-Phe-NH2)

Sequence of membrane-bound tripeptidylpeptidase II purified from rat brain (cerebral cortex) membranes (chain, as listed by the source): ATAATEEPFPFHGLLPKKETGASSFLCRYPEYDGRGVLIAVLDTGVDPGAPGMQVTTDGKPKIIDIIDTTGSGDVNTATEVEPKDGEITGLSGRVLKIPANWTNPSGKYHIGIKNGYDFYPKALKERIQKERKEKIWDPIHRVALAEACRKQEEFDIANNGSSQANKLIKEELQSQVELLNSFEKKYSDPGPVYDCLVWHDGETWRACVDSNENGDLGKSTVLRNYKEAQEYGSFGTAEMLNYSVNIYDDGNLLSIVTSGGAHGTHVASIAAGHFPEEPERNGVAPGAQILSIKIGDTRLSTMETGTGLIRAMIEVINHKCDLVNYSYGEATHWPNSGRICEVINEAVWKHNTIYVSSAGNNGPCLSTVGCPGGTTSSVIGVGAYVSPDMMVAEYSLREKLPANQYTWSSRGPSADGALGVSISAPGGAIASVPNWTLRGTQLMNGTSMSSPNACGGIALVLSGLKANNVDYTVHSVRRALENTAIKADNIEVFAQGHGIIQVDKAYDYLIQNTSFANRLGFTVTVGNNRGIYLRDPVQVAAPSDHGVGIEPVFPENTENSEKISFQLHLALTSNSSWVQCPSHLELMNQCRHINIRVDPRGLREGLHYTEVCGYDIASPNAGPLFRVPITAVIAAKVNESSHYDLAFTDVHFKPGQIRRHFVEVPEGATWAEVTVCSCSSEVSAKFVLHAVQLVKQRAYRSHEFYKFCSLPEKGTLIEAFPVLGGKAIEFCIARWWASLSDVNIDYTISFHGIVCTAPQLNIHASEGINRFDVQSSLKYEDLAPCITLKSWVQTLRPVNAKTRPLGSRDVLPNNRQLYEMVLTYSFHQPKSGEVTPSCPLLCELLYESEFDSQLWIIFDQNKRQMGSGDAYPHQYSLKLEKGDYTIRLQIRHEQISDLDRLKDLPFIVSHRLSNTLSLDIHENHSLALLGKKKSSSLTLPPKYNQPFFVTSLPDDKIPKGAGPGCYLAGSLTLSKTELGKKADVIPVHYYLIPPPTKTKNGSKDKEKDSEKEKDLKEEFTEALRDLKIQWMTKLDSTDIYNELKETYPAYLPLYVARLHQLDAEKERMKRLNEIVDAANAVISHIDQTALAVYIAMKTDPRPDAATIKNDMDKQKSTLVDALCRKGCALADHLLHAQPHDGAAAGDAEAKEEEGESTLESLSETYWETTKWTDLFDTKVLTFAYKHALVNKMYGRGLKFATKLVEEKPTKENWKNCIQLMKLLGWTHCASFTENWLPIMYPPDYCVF

membrane-bound tripeptidylpeptidase II purified from rat brain (cerebral cortex) membranes
hydrolysis of CCK-8 (products CCK-5 and Gly-Trp-Met measured fluorimetrically after HPLC): only one enzyme is responsible for the two cleavages of the molecule CCK-8

Reference: patent US6403561
